T1: Sla1-3, P32790
T1 sequence (P32790 344-424, looked up): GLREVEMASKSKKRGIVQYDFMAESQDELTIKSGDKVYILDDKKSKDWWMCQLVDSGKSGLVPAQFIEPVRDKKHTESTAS

T2: Pin3, Q06449
T2 sequence (Q06449 53-122, looked up): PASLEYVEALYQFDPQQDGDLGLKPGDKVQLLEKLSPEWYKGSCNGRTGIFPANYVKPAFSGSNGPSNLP

T3: Hse1, P38753
T3 sequence (P38753 208-285, looked up): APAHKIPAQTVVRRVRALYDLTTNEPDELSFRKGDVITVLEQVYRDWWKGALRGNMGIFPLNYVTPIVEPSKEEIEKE

T4: Bzz1-1, P38822
T4 sequence (P38822 478-572, looked up): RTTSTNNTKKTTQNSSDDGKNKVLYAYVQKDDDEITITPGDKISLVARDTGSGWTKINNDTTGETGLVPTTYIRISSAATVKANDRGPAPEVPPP

T5: Boi2, P39969
T5 sequence (P39969 32-116, looked up): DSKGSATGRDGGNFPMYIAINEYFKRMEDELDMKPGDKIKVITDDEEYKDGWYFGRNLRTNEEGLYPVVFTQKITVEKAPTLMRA

T6: Hof1, Q05080
T6 sequence (Q05080 590-669, looked up): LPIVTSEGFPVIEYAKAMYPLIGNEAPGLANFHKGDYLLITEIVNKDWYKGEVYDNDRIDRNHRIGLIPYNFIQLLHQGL

T7: Bud14, P27637
T7 sequence (P27637 247-328, looked up): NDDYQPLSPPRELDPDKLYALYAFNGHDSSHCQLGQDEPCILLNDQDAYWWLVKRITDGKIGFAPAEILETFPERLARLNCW

T8: Myo5, Q04439
T8 sequence (Q04439 1072-1160, looked up): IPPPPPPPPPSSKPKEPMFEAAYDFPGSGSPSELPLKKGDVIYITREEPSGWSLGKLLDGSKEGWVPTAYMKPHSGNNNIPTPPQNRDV

T9: Bbc1, P47068
T9 sequence (P47068 1-78, looked up): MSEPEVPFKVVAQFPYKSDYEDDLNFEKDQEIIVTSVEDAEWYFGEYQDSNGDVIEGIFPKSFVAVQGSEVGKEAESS

T10: Fus1, P11710
T10 sequence (P11710 432-512, looked up): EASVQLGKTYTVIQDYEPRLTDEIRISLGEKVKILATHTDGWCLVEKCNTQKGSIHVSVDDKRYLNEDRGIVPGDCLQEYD

T11: Boi1, P38041
T11 sequence (P38041 1-86, looked up): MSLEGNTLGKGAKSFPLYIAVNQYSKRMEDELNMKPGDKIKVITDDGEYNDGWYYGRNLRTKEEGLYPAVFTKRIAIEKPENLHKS

T12: Bzz1-2, P38822
T12 sequence (P38822 568-633, looked up): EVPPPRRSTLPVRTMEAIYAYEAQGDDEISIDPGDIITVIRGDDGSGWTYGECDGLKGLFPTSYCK

T13: Sla1-2, P32790
T13 sequence (P32790 60-140, looked up): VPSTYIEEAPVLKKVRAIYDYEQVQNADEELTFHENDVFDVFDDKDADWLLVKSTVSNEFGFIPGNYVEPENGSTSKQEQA

T14: Nbp2, Q12163
T14 sequence (Q12163 103-180, looked up): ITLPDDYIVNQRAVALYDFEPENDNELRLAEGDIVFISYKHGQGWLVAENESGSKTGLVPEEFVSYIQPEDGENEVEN

T15: Cdc25, P04821
T15 sequence (P04821 50-136, looked up): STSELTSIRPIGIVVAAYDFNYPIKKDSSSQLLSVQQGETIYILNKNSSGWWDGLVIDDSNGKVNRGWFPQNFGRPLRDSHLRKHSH

T16: Cyk3, Q07533
T16 sequence (Q07533 1-83, looked up): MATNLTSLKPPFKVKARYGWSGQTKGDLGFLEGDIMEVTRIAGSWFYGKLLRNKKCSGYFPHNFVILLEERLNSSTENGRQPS

T17: Lsb4, P32793
T17 sequence (P32793 402-468, looked up): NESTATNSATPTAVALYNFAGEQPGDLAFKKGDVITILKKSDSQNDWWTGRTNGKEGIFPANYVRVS

T18: Lsb3, P43603
T18 sequence (P43603 385-451, looked up): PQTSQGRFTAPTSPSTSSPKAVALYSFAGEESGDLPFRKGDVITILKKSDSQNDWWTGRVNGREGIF

T19: Pex13, P80667
T19 sequence (P80667 295-386, looked up): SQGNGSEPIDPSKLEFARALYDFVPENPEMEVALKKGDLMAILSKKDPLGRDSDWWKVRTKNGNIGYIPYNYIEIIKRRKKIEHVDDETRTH

T20: Abp1, P15891
T20 sequence (P15891 535-592, looked up): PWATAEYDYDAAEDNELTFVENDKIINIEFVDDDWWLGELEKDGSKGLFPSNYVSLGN

T21: Lsb1, P53281
T21 sequence (P53281 45-122, looked up): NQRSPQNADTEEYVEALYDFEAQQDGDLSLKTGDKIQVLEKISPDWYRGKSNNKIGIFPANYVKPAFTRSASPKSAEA

B1: unnamed (peptide)
chain: NNFYRPLLRSVLVLL
B2: unnamed (peptide)
chain: LKQRFFLMFPKSIIW
B3: unnamed (peptide)
chain: VLRFLGFPLPIFEKG
B4: unnamed (peptide)
chain: ITHRLRISIPGITGR

biological target: Rvs167, P39743; test: SPOT array; conditions: median of control spots 2707
Sequence (P39743 419-482): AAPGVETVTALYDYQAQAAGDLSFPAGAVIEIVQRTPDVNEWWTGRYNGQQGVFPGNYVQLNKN

Binder | SPOT intensity
B1 | 2
B2 | 0
B3 | 0
B4 | 0

biological target: T1, Sla1-3, P32790; test: SPOT array; conditions: median of control spots 5475

Binder | SPOT intensity
B1 | 4
B2 | 17
B3 | 0
B4 | 2

biological target: T2, Pin3, Q06449; test: SPOT array; conditions: median of control spots 2171

Binder | SPOT intensity
B1 | 5
B2 | 54
B3 | 3
B4 | 69

biological target: T3, Hse1, P38753; test: SPOT array; conditions: median of control spots 1727

Binder | SPOT intensity
B1 | 0
B2 | 8
B3 | 6
B4 | 11

biological target: T4, Bzz1-1, P38822; test: SPOT array; conditions: median of control spots 4446

Binder | SPOT intensity
B1 | 3
B2 | 0
B3 | 0
B4 | 1

biological target: GST; test: SPOT array; conditions: median of control spots 978

Binder | SPOT intensity
B1 | 1
B2 | 0
B3 | 0
B4 | 0

biological target: Bem1-2, P29366; test: SPOT array; conditions: median of control spots 4347
Sequence (P29366 139-227): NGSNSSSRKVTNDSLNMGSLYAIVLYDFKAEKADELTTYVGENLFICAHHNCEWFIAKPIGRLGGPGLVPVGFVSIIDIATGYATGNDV

Binder | SPOT intensity
B1 | 3
B2 | 1
B3 | 2
B4 | 6

biological target: T5, Boi2, P39969; test: SPOT array; conditions: median of control spots 1161

Binder | SPOT intensity
B1 | 2
B2 | 1
B3 | 1
B4 | 1

biological target: T6, Hof1, Q05080; test: SPOT array; conditions: median of control spots 4086

Binder | SPOT intensity
B1 | 0
B2 | 5
B3 | 4
B4 | 1

biological target: T7, Bud14, P27637; test: SPOT array; conditions: median of control spots 956

Binder | SPOT intensity
B1 | 14
B2 | 27
B3 | 17
B4 | 8

biological target: T8, Myo5, Q04439; test: SPOT array; conditions: median of control spots 471

Binder | SPOT intensity
B1 | 0
B2 | 0
B3 | 0
B4 | 4

biological target: T9, Bbc1, P47068; test: SPOT array; conditions: median of control spots 796

Binder | SPOT intensity
B1 | 37
B2 | 23
B3 | 30
B4 | 24

biological target: Sho1, P40073; test: SPOT array; conditions: median of control spots 1148
Sequence (P40073 287-367): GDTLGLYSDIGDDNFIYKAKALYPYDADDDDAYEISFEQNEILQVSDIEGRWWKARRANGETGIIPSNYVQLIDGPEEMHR

Binder | SPOT intensity
B1 | 17
B2 | 53
B3 | 43
B4 | 191

biological target: T10, Fus1, P11710; test: SPOT array; conditions: median of control spots 1200

Binder | SPOT intensity
B1 | 13
B2 | 38
B3 | 78
B4 | 39

biological target: T11, Boi1, P38041; test: SPOT array; conditions: median of control spots 1162

Binder | SPOT intensity
B1 | 6
B2 | 2
B3 | 1
B4 | 1

biological target: T12, Bzz1-2, P38822; test: SPOT array; conditions: median of control spots 4538

Binder | SPOT intensity
B1 | 2
B2 | 0
B3 | 0
B4 | 0

biological target: T13, Sla1-2, P32790; test: SPOT array; conditions: median of control spots 712

Binder | SPOT intensity
B1 | 0
B2 | 0
B3 | 0
B4 | 4

biological target: Bem1-1, P29366; test: SPOT array; conditions: median of control spots 4282
Sequence (P29366 55-141): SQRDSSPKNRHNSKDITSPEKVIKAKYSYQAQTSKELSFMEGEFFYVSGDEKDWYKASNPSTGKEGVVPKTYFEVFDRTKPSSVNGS

Binder | SPOT intensity
B1 | 0
B2 | 0
B3 | 0
B4 | 0

biological target: T14, Nbp2, Q12163; test: SPOT array; conditions: median of control spots 357

Binder | SPOT intensity
B1 | 3
B2 | 9
B3 | 41
B4 | 32

biological target: T15, Cdc25, P04821; test: SPOT array; conditions: median of control spots 969

Binder | SPOT intensity
B1 | 22
B2 | 25
B3 | 28
B4 | 29

biological target: T16, Cyk3, Q07533; test: SPOT array; conditions: median of control spots 1451

Binder | SPOT intensity
B1 | 9
B2 | 4
B3 | 7
B4 | 0

biological target: T17, Lsb4, P32793; test: SPOT array; conditions: median of control spots 397

Binder | SPOT intensity
B1 | 0
B2 | 0
B3 | 0
B4 | 5

biological target: T18, Lsb3, P43603; test: SPOT array; conditions: median of control spots 406

Binder | SPOT intensity
B1 | 1
B2 | 0
B3 | 0
B4 | 9

biological target: T19, Pex13, P80667; test: SPOT array; conditions: median of control spots 1341

Binder | SPOT intensity
B1 | 4
B2 | 21
B3 | 4
B4 | 32

biological target: T20, Abp1, P15891; test: SPOT array; conditions: median of control spots 935

Binder | SPOT intensity
B1 | 14
B2 | 63
B3 | 19
B4 | 118

biological target: T21, Lsb1, P53281; test: SPOT array; conditions: median of control spots 388

Binder | SPOT intensity
B1 | 0
B2 | 7
B3 | 0
B4 | 231

biological target: Myo3, P36006; test: SPOT array; conditions: median of control spots 468

Binder | SPOT intensity
B1 | 0
B2 | 12
B3 | 1
B4 | 37

— article PMC2756588
